In patent US20190071480A1 (Biogen, published 2019):
One block for each binder: values may come before it.

Biological target: T1, extracellular domain of activin receptor type IIB (ActRIIBecd), biotinylated (Homo sapiens (Human), UniProt Q13705 27-117, amino-biotinylated with amine-PEG3-Biotin)
T1 construct: immobilised on a streptavidin-coated sensor chip; also called biotinylated ActRIIBecd; extracellular domain of ActRIIB
T1 sequence: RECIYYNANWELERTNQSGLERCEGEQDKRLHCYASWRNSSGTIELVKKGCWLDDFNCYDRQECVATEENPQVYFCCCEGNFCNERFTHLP
Test: Mean KD column of Table 5; method not restated (BIAcore as Example 5)
Experimental: Biosensor experiments. In one embodiment, experiments were performed on a BIAcore™ T100/T200 instrument (Pharmacia Biosensor AB) in the multichannel mode (serial flow path involving flow cells 1+2+3+4). Flow rate was 10 μl/min; temperature was 25° C.; and data were recorded at 2.5 points/s. All four segments of a sensor chip CMS were coated with streptavidin (Sigma) to a density of 2000 pg/mm² (2000 resonance units) by the aminocoupling procedure. ActRIIBecd (10 mg) and amine-PEG3-Biotin (10 mg, Pierce, Rockford, Ill.) were dissolved in 200 μl H₂O and 10 mg NaCNBH₃ was added to prepare biotinylated ActRIIBecd. The reaction mixture was heated at 70° C. for 24 h, after that a further 10 mg NaCNBH₃ was added and the reaction was heated at 70° C. for another 24 h. After cooling to room temperature, the mixture was desalted with the spin column (3,000 molecular weight cut off (MWCO)). Biotinylated ActRIIBecd was collected, freeze-dried and used for streptavidin (SA) chip preparation. Amino-biotinylated ActRIIBecd was then immobilized independently on flow cells 2-4 for 10 minutes at a flow rate of 5 μL/min and a concentration of 20 μM in 10 mM sodium acetate, pH 4.0, at a density of 50-250 resonance units (RU). The stored polypeptides were dissolved in glycine buffer (2.5 g of glycine, 0.5 g of sucrose, 370 mg of L-glutamate, 10 mg of sodium chloride, and 10 mg of Tween 80 in 100 mL water, pH 4.5) to prepare 10 mg/mL solution and then diluted with previous glycine buffer to prepare analytes with various concentration. Sensograms were recorded during flow of the analyte (the ActRIIBecd-associated polypeptides (i.e., domains) as previously described) first through flow cell 1 (control) then through flow cell 2 (biotinylated ActRIIBecd). The sensogram obtained for flow cell 1 was subtracted from the sensogram obtained for flow cell 2. The sensograms obtained at 1.11, 3.33, 10, 30, and 90 nM analyte were evaluated for equilibrium binding, association rate, and dissociation rate by using the programs supplied with the instrument (BIA evaluation 2.1; Software Handbook. 1995; Pharmacia Biosensor AB).

Kd: 7.41 nM
B6: SEQ ID NO: 276, cysteine pairs C67-C71^a (designed binder)
chain: NSKIPKACCVPTELSAISMLYLDENEKVVLKNYQDMVVEGCGCRVDFSDVGWNDWIVAPPGYHAFYCHGECPFPLADHLNSTNHAIVQTLVNSVAQAKHKQRKRLKSSCKRHPLY
modifications: disulfides C67-C71 (intra)

Kd: 8.14 nM
B7: SEQ ID NO: 284, cysteine pairs C88-C92^a (designed binder)
chain: NSKIPKACCVPTELSAISMLYLDENEKVVLKNYQDMVVEGCGCRAQAKHKQRKRLKSSCKRHPLYVDFSDVGWNDWIVAPPGYHAFYCHGECPFPLADHLNSTNHAIVQTLVNSV
modifications: disulfides C88-C92 (intra)

Kd: 7.81 nM
B8: SEQ ID NO: 292, cysteine pairs C44-C48^a (designed binder)
chain: GQAKRKGYKRLKSSCKRHPLYVDFKDVGWNDHAVAPPGYHAFYCHGECPFPLADHLNSDNHAIVQTKVNSVNSKDPKACCVPTELSAPSPLYLDENEKPVLKNYQDMVVHGCGCR
modifications: disulfides C44-C48 (intra)

Kd: 10.9 nM
B11: SEQ ID NO: 308, cysteine pairs C8-C43^a, C9-C41^a, C88-C92^a (designed binder)
chain: NSKDPKACCVPTELSAPSPLYLDENEKPVLKNYQDMVVHGCGCRGQAKRKGYKRLKSSCKRHPLYVDFKDVGWNDHAVAPPGYHAFYCHGECPFPLADHLNSDNHAIVQTKVNSV
modifications: disulfides C8-C43 (intra), C9-C41 (intra), C88-C92 (intra)

Further lines, the binder ahead of its results:

B1: SEQ ID NO: 260, cysteine pairs C44-C48^a (designed binder)
chain: AQAKHKQRKRLKSSCKRHPLYVDFSDVGWNDWIVAPPGYHAFYCHGECPFPLADHLNSTNHAIVQTLVNSVNSKIPKACCVPTELSAISMLYLDENEKVVLKNYQDMVVEGCGCR
modifications: disulfides C44-C48 (intra)
Kd: 8.04 nM

B2: SEQ ID NO: 260, cysteine pairs C15-C15^b, C80-C114^b, C79-C112^b, C44-C48^a (designed binder)
chain: B1 chain
modifications: disulfides C15-C15 (inter), C80-C114 (inter), C79-C112 (inter), C44-C48 (intra)
notes: homodimer by intermolecular disulfide
Kd: 4.04 nM

B3: SEQ ID NO: 260, cysteine pairs C15-C15^b, C79-C114^b, C80-C112^b, C44-C48^a (designed binder)
chain: B1 chain
modifications: disulfides C15-C15 (inter), C79-C114 (inter), C80-C112 (inter), C44-C48 (intra)
notes: as for B2
Kd: 4.03 nM

B4: SEQ ID NO: 260, cysteine pairs C79-C114^b, C80-C112^b, C44-C48^a (designed binder)
chain: B1 chain
modifications: disulfides C79-C114 (inter), C80-C112 (inter), C44-C48 (intra)
notes: as for B2
Kd: 6.05 nM

B5: SEQ ID NO: 268, cysteine pairs C23-C27^a (designed binder)
chain: VDFSDVGWNDWIVAPPGYHAFYCHGECPFPLADHLNSTNHAIVQTLVNSVAQAKHKQRKRLKSSCKRHPLYNSKIPKACCVPTELSAISMLYLDENEKVVLKNYQDMVVEGCGCR
modifications: disulfides C23-C27 (intra)
Kd: 8.41 nM

B9: SEQ ID NO: 300, cysteine pairs C23-C27^a (designed binder)
chain: VDFKDVGWNDHAVAPPGYHAFYCHGECPFPLADHLNSDNHAIVQTKVNSVGQAKRKGYKRLKSSCKRHPLYNSKDPKACCVPTELSAPSPLYLDENEKPVLKNYQDMVVHGCGCR
modifications: disulfides C23-C27 (intra)
Kd: 8.92 nM

B10: SEQ ID NO: 308, cysteine pairs C88-C92^a (designed binder)
chain: B11 chain
modifications: disulfides C88-C92 (intra)
Kd: 7.8 nM

B12: SEQ ID NO: 316, cysteine pairs C67-C71^a (designed binder)
chain: NSKDPKACCVPTELSAPSPLYLDENEKPVLKNYQDMVVHGCGCRVDFKDVGWNDHAVAPPGYHAFYCHGECPFPLADHLNSDNHAIVQTKVNSVGQAKRKGYKRLKSSCKRHPLY
modifications: disulfides C67-C71 (intra)
Kd: 4.67 nM

B13: SEQ ID NO: 340, cysteine pairs C88-C92^a (designed binder)
chain: AQAKHKQRKRLKSSCKRHPLYNSKDPKACCVPTELSAPSPLYLDENEKPVLKNYQDMVVHGCGCRVDFKDVGWNDHAVAPPGYHAFYCHGECPFPLADHLNSDNHAIVQTKVNSV
modifications: disulfides C88-C92 (intra)
Kd: 5.64 nM

B14: SEQ ID NO: 348, cysteine pairs C88-C92^a (designed binder)
chain: GQAKRKGYKRLKSSCKRHPLYNSKIPKACCVPTELSAISMLYLDENEKVVLKNYQDMVVEGCGCRVDFSDVGWNDWIVAPPGYHAFYCHGECPFPLADHLNSTNHAIVQTLVNSV
modifications: disulfides C88-C92 (intra)
Kd: 4.51 nM
